The target in one test is T1, 4H733-AA.
T1 chain: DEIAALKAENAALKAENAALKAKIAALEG
The experiment in a line: two-hybrid library CCmax.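 Note: natural log of median RNA to DNA barcode read ratio; higher means stronger binding.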 As to conditions: mean of both orientations.

A further test deals with T2, APC1434-AA.
T2 chain: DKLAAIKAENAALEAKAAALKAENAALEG
As to the kind of experiment: two-hybrid library CCmax.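 Note: natural log of median RNA to DNA barcode read ratio; higher means stronger binding.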 The note with it: mean of both orientations.

A further test addresses T3, APC9096-AA.
T3 chain: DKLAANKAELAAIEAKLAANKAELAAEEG
As to the kind of experiment: two-hybrid library CCmax.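 Note: natural log of median RNA to DNA barcode read ratio; higher means stronger binding.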 The note with it: mean of both orientations.

Another test addresses T4, APC7099-AA.
T4 chain: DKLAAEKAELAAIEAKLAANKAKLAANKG
As to the kind of experiment: two-hybrid library CCmax.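 Note: natural log of median RNA to DNA barcode read ratio; higher means stronger binding.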 The note with it: mean of both orientations.

The next test deals with T5, APC9319-AA.
T5 chain: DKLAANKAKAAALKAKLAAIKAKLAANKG
As to the kind of experiment: two-hybrid library CCmax.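 Note: natural log of median RNA to DNA barcode read ratio; higher means stronger binding.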 The note with it: mean of both orientations.

Another test concerns the target T6, 4H807-AA.
T6 chain: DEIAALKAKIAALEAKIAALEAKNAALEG
The experiment in a line: two-hybrid library CCmax.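 Note: natural log of median RNA to DNA barcode read ratio; higher means stronger binding.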 As to conditions: mean of both orientations.

The next test addresses T7, APC2405-AA.
T7 chain: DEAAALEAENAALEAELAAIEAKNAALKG
The experiment in a line: two-hybrid library CCmax. The note with it: mean of both orientations.

A further test concerns the target T8, APC1015-AA.
T8 chain: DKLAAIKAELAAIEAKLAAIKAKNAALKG
As to the kind of experiment: two-hybrid library CCmax. The note with it: mean of both orientations.

The target of a further test is T9, APC232-AA.
T9 chain: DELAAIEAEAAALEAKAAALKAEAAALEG
As to the kind of experiment: two-hybrid library CCmax. As to conditions: mean of both orientations.

The next test concerns the target T10, APC4264-AA.
T10 chain: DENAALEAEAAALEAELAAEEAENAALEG
As to the kind of experiment: two-hybrid library CCmax. The note with it: mean of both orientations.

The target in a further test is T11, APC5383-AA.
T11 chain: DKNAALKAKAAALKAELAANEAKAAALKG
The experiment in a line: two-hybrid library CCmax. The note with it: mean of both orientations.

The target in another test is T12, APC4011-AA.
T12 chain: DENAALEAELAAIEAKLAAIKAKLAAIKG
As to the kind of experiment: two-hybrid library CCmax. The note with it: mean of both orientations.

For another test, the target named is T13, APC3645-AA.
T13 chain: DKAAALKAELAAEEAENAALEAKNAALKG
As to the kind of experiment: two-hybrid library CCmax. As to conditions: mean of both orientations.

A further test addresses T14, APC8910-AA.
T14 chain: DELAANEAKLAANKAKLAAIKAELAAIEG
As to the kind of experiment: two-hybrid library CCmax. The note with it: mean of both orientations.

The target of the next test is T15, APC6108-AA.
T15 chain: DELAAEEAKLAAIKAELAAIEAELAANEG
As to the kind of experiment: two-hybrid library CCmax. As to conditions: mean of both orientations.

Another test deals with T16, APC2237-AA.
T16 chain: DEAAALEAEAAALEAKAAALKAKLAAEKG
As to the kind of experiment: two-hybrid library CCmax. As to conditions: mean of both orientations.

Another test concerns the target T17, APC4436-AA.
T17 chain: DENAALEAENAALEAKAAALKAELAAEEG
As to the kind of experiment: two-hybrid library CCmax. As to conditions: mean of both orientations.

The next test concerns the target T18, APC8191-AA.
T18 chain: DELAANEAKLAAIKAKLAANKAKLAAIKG
As to the kind of experiment: two-hybrid library CCmax. The note with it: mean of both orientations.

Another test has as its target T19, 4H716-AA.
T19 chain: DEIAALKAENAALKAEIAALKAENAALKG
The experiment in a line: two-hybrid library CCmax.

Another test addresses T20, 4H3961-bN.
T20 chain: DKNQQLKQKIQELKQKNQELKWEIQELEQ
As to the kind of experiment: two-hybrid library CCNG1.

In another test the target is T21, 4H4038-bN.
T21 chain: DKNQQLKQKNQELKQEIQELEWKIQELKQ
The experiment in a line: two-hybrid library CCNG1.

The target of the next test is T22, 4H470-bN.
T22 chain: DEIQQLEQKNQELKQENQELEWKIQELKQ
As to the kind of experiment: two-hybrid library CCNG1.

For the next test, the target named is T23, 4H3907-bN.
T23 chain: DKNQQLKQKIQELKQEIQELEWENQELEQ
As to the kind of experiment: two-hybrid library CCNG1.

The next test concerns the target T24, P8.
T24 chain: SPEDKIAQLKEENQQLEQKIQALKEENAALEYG
The experiment in a line: two-hybrid library CC1. As to conditions: mean of both orientations.

Another test has as its target T25, P8mS.
T25 chain: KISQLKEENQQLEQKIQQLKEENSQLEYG
As to the kind of experiment: two-hybrid library CC1. The note with it: mean of both orientations.

The target in another test is T26, P6mS.
T26 chain: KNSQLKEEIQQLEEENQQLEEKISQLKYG
The experiment in a line: two-hybrid library CC1. As to conditions: mean of both orientations.

The next test has as its target T27, P5.
T27 chain: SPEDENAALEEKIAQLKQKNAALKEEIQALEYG
The experiment in a line: two-hybrid library CC1.

For another test, the target named is T28, P5SC2.
T28 chain: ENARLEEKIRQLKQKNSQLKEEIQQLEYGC
The experiment in a line: two-hybrid library CC1. As to conditions: mean of both orientations.

The next test addresses T29, P7mS.
T29 chain: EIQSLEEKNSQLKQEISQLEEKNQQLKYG
As to the kind of experiment: two-hybrid library CC1. The note with it: mean of both orientations.

Another test deals with T30, P6SC1.
T30 chain: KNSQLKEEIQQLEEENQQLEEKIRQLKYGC
As to the kind of experiment: two-hybrid library CC1. As to conditions: mean of both orientations.

In another test the target is T31, P5mS.
T31 chain: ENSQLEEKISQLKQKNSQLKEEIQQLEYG
As to the kind of experiment: two-hybrid library CC1. As to conditions: mean of both orientations.

A further test has as its target T32, P7.
T32 chain: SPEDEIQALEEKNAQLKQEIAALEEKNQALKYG
The experiment in a line: two-hybrid library CC1. The note with it: mean of both orientations.

The next test concerns the target T33, P5SC1.
T33 chain: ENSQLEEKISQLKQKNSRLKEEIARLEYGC
The experiment in a line: two-hybrid library CC1. As to conditions: mean of both orientations.

The next test concerns the target T34, P6SC2.
T34 chain: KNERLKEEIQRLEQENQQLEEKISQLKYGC
As to the kind of experiment: two-hybrid library CC1. As to conditions: mean of both orientations.

The target of another test is T35, P9.
T35 chain: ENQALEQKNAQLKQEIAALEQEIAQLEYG
The experiment in a line: two-hybrid library CC1. As to conditions: mean of both orientations.

In another test the target is T36, P6.
T36 chain: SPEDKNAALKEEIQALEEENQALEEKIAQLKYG
The experiment in a line: two-hybrid library CC1. As to conditions: mean of both orientations.

For the next test, the target named is T37, P4bH1.
T37 chain: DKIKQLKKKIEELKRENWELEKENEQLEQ
As to the kind of experiment: two-hybrid library CCNG1.

In the next test the target is T38, 4H491-bN.
T38 chain: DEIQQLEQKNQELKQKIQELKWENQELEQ
The experiment in a line: two-hybrid library CCNG1.

From PMC10397247 come the findings set out here.

As for DEIAALKAENAALKAEIAALKAENAALKG [4H716-AA], the interaction score with 4H733-AA is -1.28; with APC1434-AA it was -1.53; in the test with APC9096-AA, -1.43; with APC7099-AA, -1.6; with APC9319-AA, -1.79; with 4H807-AA, -1.6. For the same molecule, the interaction score with APC2405-AA is -1; with APC1015-AA it was -1.65; with APC232-AA, -1.48; in the test with APC4264-AA, -1.35; with APC5383-AA, -1.79; with APC4011-AA, -1.44. The interaction score with APC3645-AA was -1.45; with APC8910-AA it was -1.89; with APC6108-AA it was -1.47; with APC2237-AA, -1.74; with APC4436-AA it was -1.65; with APC8191-AA, -1.36. The molecule also yielded an interaction score in the test with 4H716-AA of 1.49.

As to DKNQQLKQKIQELKQEIQELEWENQELEQ [4H3907-bN], the interaction score with 4H3961-bN was -1.64; with 4H4038-bN, -2.02; with 4H470-bN it was -1.7; with 4H3907-bN, -1.04.

With SPEDENAALEEKIAQLKQKNAALKEEIQALEYG [P5], the interaction score with P8 is -1.39; with P8mS, -2.62; with P6mS, 0.1; in the test with P5, -2.89; in the test with P5SC2, -2.84; with P7mS it was -2.8. For the same molecule, the interaction score is 0.186 with P6SC1; -2.94 in the test with P5mS; -2.59 with P7; -2.93 with P5SC1; 0.252 in the test with P6SC2; -2.12 in the test with P9. In addition, the interaction score with P6 is 0.207.

In the case of DEIQQLEQKNQELKQKIQELKWENQELEQ [4H491-bN], the interaction score in the test with P4bH1 and in the test with 4H491-bN was -0.336 throughout.
